These results are taken from patent publication US20240166755A1 (UNIVERSITY OF SOUTHERN CALIFORNIA, published 2024).

For experiment [1], the target named is T1, FLAG-CD19-ECD-GGSG-NLuc-AcV5 (human).
T1 construct: the entry includes the signal peptide; also called CD19-GGSG-NLuc-AcV5; CD19-GGSG-NLuc fusion protein
T1 chain: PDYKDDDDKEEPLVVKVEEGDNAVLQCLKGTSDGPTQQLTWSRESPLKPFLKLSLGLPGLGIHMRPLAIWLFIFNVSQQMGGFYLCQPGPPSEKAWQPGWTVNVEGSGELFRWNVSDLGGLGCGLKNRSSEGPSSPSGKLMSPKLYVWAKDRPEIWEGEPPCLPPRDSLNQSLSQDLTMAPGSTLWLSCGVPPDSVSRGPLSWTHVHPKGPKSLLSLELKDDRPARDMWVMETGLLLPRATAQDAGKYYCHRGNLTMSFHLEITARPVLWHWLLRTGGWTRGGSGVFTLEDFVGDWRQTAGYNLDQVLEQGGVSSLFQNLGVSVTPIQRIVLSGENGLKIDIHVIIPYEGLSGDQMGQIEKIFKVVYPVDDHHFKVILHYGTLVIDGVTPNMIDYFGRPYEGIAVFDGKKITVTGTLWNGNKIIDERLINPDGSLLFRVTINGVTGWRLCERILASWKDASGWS
As to the kind of experiment: NLuc assay: CAR-T cells incubated with CD19-GGSG-NLuc-AcV5 supernatant.

For experiment [2], the target named is T1, FLAG-CD19-ECD-GGSG-NLuc-AcV5. As to the kind of experiment: NLuc assay: CAR on Jurkat-NFAT-Luc cells incubated with FLAG-CD19-ECD-GGSG-NLuc-AcV5 supernatant.
Another experiment concerns the target T2, MPL-ECD-GGSG-Nluc-AcV5 (human).
T2 construct: the entry includes the native signal peptide; also called MPL-GGSG-NLuc-AcV5; MPL-GGSG-NLuc AcV5
T2 chain: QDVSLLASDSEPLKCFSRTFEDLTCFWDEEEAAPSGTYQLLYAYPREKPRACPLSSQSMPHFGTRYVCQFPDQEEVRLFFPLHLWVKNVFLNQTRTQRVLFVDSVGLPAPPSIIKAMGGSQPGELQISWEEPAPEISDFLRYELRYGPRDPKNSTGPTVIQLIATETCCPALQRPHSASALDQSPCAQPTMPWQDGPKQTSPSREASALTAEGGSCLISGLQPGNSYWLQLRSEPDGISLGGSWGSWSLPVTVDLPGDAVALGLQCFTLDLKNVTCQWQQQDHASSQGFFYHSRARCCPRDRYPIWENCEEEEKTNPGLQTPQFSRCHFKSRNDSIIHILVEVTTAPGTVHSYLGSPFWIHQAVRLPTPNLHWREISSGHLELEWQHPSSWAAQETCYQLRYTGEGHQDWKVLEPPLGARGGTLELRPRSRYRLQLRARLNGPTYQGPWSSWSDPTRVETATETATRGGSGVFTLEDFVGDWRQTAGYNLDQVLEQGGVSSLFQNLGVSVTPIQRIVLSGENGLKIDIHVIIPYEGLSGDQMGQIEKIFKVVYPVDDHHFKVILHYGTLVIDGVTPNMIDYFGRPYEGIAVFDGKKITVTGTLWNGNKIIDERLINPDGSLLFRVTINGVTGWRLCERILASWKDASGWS
In words: NLuc assay: CAR-T cells incubated with MPL-GGSG-NLuc-AcV5 supernatant.

Experiment [3] concerns the target T3, human MPL (thrombopoietin receptor) (human, UniProt P40238 26-635).
T3 construct: whole, on cells; also called c-MPL; c-Mpl
T3 sequence (looked up): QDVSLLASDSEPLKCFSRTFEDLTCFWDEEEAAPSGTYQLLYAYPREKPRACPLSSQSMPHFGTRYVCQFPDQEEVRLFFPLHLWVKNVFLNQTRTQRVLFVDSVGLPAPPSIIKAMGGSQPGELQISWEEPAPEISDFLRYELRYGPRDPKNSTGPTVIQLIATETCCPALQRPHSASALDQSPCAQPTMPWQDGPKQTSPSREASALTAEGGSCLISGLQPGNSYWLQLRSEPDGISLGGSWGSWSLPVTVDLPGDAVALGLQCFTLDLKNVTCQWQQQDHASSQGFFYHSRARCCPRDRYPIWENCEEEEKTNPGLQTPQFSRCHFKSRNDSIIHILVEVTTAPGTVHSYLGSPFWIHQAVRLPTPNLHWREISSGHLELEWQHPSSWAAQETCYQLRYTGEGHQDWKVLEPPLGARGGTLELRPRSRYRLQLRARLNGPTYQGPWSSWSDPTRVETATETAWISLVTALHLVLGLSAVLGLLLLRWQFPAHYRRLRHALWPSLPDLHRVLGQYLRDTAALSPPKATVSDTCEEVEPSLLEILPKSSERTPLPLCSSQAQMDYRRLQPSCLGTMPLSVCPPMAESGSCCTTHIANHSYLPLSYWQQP
As to the kind of experiment: NLuc luminescence of scFv-NLuc fusion supernatant bound to washed cells.

B1: CD8SP-AB317-(vL-vH)-Myc-CD28z-T2A-PAC(031615-T04) (scFv)
chain: DIVLTQSPASLAVSLGQSVTISCRASESVEYYGTSLMQWYQQKPGQPPKLLIYGASNVESGVPARFSGSGSGTDFSLNIHPVEEDDIAMYFCQQSRKVPWTFGGGTKLEIKGGGGSGGGGSGGGGSEVKLVESGGGLVKPGGSRKLSCAASGFTFSSYTMSWVRQTPAKRLEWVATISSGSSTIYYADTVKGRFTISRDNAKNTLFLQMTSLRSEDTAMYYCARRWFLDCWGQGTTLTVSSTREQKLISEEDLKIEVMYPPPYLDNEKSNGTIIHVKGKHLCPSPLFPGPSKPFWVLVVVGGVLACYSLLVTVAFIIFWVRSKRSRLLHSDYMNMTPRRPGPTRKHYQPYAPPRDFAAYRSRVKFSRSADAPAYQQGQNQLYNELNLGRREEYDVLDKRRGRDPEMGGKPRRKNPQEGLYNELQKDKMAEAYSEIGMKGERRRGKGHDGLYQGLSTATKDTYDALHMQALPPRSSGSGEGRGSLLTCGDVEENPG
notes: CAR on cells; entry = whole encoded polyprotein incl; CD8 signal peptide and T2A-PAC
As to B1, the binding result in experiment [1] is given as “no binding”.

B2: CD8SP-KSHV-4C3-(vL-vH)-Myc-BBz-T2A-PAC(042315-N01) (scFv)
chain: DIVMTQSPSSLTMSVGQKVTMSCKSSHSLLNSRNQKNYLAWFQQKPGQSPKLLVYFASTRESGVPDRFIGSGSGTDFTLTISNVQAEDLADYFCQQHYTTLPTFGGGTKLEIKGGGGSGGGGSGGGGSQIQLVQSGPDLKKPGETVKISCKASGYTFTNTGMNWVKQAPGKGLKWMGWINTYTGEPTYADDFKGRFTFSLETSASTAYLQINNLKNEDTATYFCTRWGYGSSLYYAMDYWGQGTSVTVSSTREQKLISEEDLAKPTTTPAPRPPTPAPTIASQPLSLRPEACRPAAGGAVHTRGLDFACDIYIWAPLAGTCGVLLLSLVITLYCKRGRKKLLYIFKQPFMRPVQTTQEEDGCSCRFPEEEEGGCELRVKFSRSADAPAYQQGQNQLYNELNLGRREEYDVLDKRRGRDPEMGGKPRRKNPQEGLYNELQKDKMAEAYSEIGMKGERRRGKGHDGLYQGLSTATKDTYDALHMQALPPRSSGSGEGRGSLLTCGDVEENPG
notes: also called control CAR 4C3
Turning to B2, the binding result in experiment [2] was “no binding”.

B3: CD8SP-175-(vL-vH)-Myc-CD28z-T2A-PAC(031615-Q04) (scFv)
chain: DQIVLTQSPAIMSASPGEKVTISCSASSSVSYMYWYQQKPGSSPKPWIYRTSNLASGVPARFSGSGSGTSYSLTISNMEAEDAAAYYCQQYHSYPTTFGGGTKLEVKGGGGSGGGGSGGGGSEVQLVESGGGLVQPKGSLKLSCAASGFSFNTYAMNWVRQAPGKGLEWIAHIRSKSNNFATYYADSVKDRFSISRDASENILFLQMNNLKTEDTAMYYCVRQGGDFPMDYWGQGTSVTVSSTREQKLISEEDLKIEVMYPPPYLDNEKSNGTIIHVKGKHLCPSPLFPGPSKPFWVLVVVGGVLACYSLLVTVAFIIFWVRSKRSRLLHSDYMNMTPRRPGPTRKHYQPYAPPRDFAAYRSRVKFSRSADAPAYQQGQNQLYNELNLGRREEYDVLDKRRGRDPEMGGKPRRKNPQEGLYNELQKDKMAEAYSEIGMKGERRRGKGHDGLYQGLSTATKDTYDALHMQALPPRSSGSGEGRGSLLTCGDVEENPG
notes: as for B1
As for B3, the binding result in experiment [1] is listed as “no binding”.

B4: CD8SP-4C3-(vL-vH)-Myc-CD28z-T2A-Pac(031615-W05) (scFv)
chain: DIVMTQSPSSLTMSVGQKVTMSCKSSHSLLNSRNQKNYLAWFQQKPGQSPKLLVYFASTRESGVPDRFIGSGSGTDFTLTISNVQAEDLADYFCQQHYTTLPTFGGGTKLEIKGGGGSGGGGSGGGGSQIQLVQSGPDLKKPGETVKISCKASGYTFTNTGMNWVKQAPGKGLKWMGWINTYTGEPTYADDFKGRFTFSLETSASTAYLQINNLKNEDTATYFCTRWGYGSSLYYAMDYWGQGTSVTVSSTREQKLISEEDLKIEVMYPPPYLDNEKSNGTIIHVKGKHLCPSPLFPGPSKPFWVLVVVGGVLACYSLLVTVAFIIFWVRSKRSRLLHSDYMNMTPRRPGPTRKHYQPYAPPRDFAAYRSRVKFSRSADAPAYQQGQNQLYNELNLGRREEYDVLDKRRGRDPEMGGKPRRKNPQEGLYNELQKDKMAEAYSEIGMKGERRRGKGHDGLYQGLSTATKDTYDALHMQALPPRSSGSGEGRGSLLTCGDVEENPG
notes: also called control CAR 4C3
With B4, in the experiment with MPL-ECD-GGSG-Nluc-AcV5, the binding result is recorded as “no binding”.

B5: CD8SP-161-(vL-vH)-GGSG-NLuc-AcV5 (scFv)
scFv: DDIQMTQSSSSFSVSLGDRVTITCMASEDIYIRLAWYQQKPGNAPRLLISAATSLETGVPSRFSGSGSGKDYTLSITSLQTEDVGTYYCQQYWSSPWTFGGGTKLEINGGGGSGGGGSGGGGSDVQLQESGPGLVKPSQSLSLTCTVTGYSITSDYTWNWIRQFPGNKLEWMGYITYSGSTSYNPSLKSRNSITRDTSKNQFFLQLNSVTTEDTATYYCARLGRRYTMDYWGQGTSVTVSSTRGGSGVFTLEDFVGDWRQTAGYNLDQVLEQGGVSSLFQNLGVSVTPIQRIVLSGENGLKIDIHVIIPYEGLSGDQMGQIEKIFKVVYPVDDHHFKVILHYGTLVIDGVTPNMIDYFGRPYEGIAVFDGKKITVTGTLWNGNKIIDERLINPDGSLLFRVTINGVTGWRLCERILASWKDASGWS
notes: the entry includes the CD8 signal peptide
For B5, in experiment [3], the binding result is on record as “binds”.

B6: CD8SP-12E10-(vL-vH)-Myc-CD28z-T2A-PAC(031615-S03) (scFv)
chain: DQVQLQQSGPGLVKPSETLSLTCTVSGDSISSYYWSWIRQPPGKGLEWIGYIYYSGSTNYNPSLKSRVTISVDTSKSQFSLKLSSVTAADTAVYYCARGRYFDVWGRGTMVTSSGGGGSGGGGSGGGGSSSYVLTQPPSVSGSPGQSITISCTGTSSDVGGYNYVSWYQQHPGKAPKLMIYEGSKRPSGVSNRFSGSKSGNTASLTISGLQAEDEADYYCSSYTTRSTRVFGGGTKLTVLGAAATREQKLISEEDLKIEVMYPPPYLDNEKSNGTIIHVKGKHLCPSPLFPGPSKPFWVLVVVGGVLACYSLLVTVAFIIFWVRSKRSRLLHSDYMNMTPRRPGPTRKHYQPYAPPRDFAAYRSRVKFSRSADAPAYQQGQNQLYNELNLGRREEYDVLDKRRGRDPEMGGKPRRKNPQEGLYNELQKDKMAEAYSEIGMKGERRRGKGHDGLYQGLSTATKDTYDALHMQALPPRSSGSGEGRGSLLTCGDVEENPG
notes: as for B1
As for B6, the binding result in experiment [1] is given as “no binding”.

B7: CD8SP-161-(vL-vH)-Myc-CD28z-T2A-PAC(021715-Z07) (scFv)
chain: DDIQMTQSSSSFSVSLGDRVTITCMASEDIYIRLAWYQQKPGNAPRLLISAATSLETGVPSRFSGSGSGKDYTLSITSLQTEDVGTYYCQQYWSSPWTFGGGTKLEINGGGGSGGGGSGGGGSDVQLQESGPGLVKPSQSLSLTCTVTGYSITSDYTWNWIRQFPGNKLEWMGYITYSGSTSYNPSLKSRNSITRDTSKNQFFLQLNSVTTEDTATYYCARLGRRYTMDYWGQGTSVTVSSTREQKLISEEDLKIEVMYPPPYLDNEKSNGTIIHVKGKHLCPSPLFPGPSKPFWVLVVVGGVLACYSLLVTVAFIIFWVRSKRSRLLHSDYMNMTPRRPGPTRKHYQPYAPPRDFAAYRSRVKFSRSADAPAYQQGQNQLYNELNLGRREEYDVLDKRRGRDPEMGGKPRRKNPQEGLYNELQKDKMAEAYSEIGMKGERRRGKGHDGLYQGLSTATKDTYDALHMQALPPRSSGSGEGRGSLLTCGDVEENPG
notes: as for B1
Consider B7, for which the binding result in experiment [1] is listed as “no binding”.
